Here are results for 6 molecules from article PMC1405818.

Data set [1] concerns the target T1, LEDGF/p75 wild type (human, UniProt O75475 1-530). The data set is described as follows: SPR.
The target of data set [2] is LEDGF/p75 1-116 (PWWP domain) (human, UniProt O75475 1-116). The data set is described as follows: EMSA. For orientation: In EMSA bound probe runs differently from free probe, usually more slowly.
Data set [3] has as its target LEDGF/p75 347-530 (IBD fragment) (human, UniProt O75475 347-530). The data set is described as follows: EMSA.
Data set [4] deals with T1, LEDGF/p75 wild type. The data set is described as follows: EMSA.
The target of data set [5] is T1, LEDGF/p75 wild type. The data set is described as follows: EMSA. The source holds these as a separate data set.
A further data set has as its target LEDGF/p75 93-226 (human, UniProt O75475 93-226). The data set is described as follows: EMSA.
The target in data set [6] is T1, LEDGF/p75 wild type. Kind of data set: SPR. This is another data set of the same source.
The next data set concerns the target MutL3 (human, UniProt O75475 1-530, R180A;G181A;R182A;R194A;G195A;R196A). Kind of data set: SPR. In general terms: Surface plasmon resonance follows binding to a sensor surface in real time, without labels.
Another data set deals with MutL5 (human, UniProt O75475 1-530, R194A;G195A;R196A). Kind of data set: SPR.
The next data set concerns the target MutL4 (human, UniProt O75475 1-530, R180A;G181A;R182A). The data set is described as follows: SPR.

T1 sequence (O75475 whole entry, the tested form may be a part): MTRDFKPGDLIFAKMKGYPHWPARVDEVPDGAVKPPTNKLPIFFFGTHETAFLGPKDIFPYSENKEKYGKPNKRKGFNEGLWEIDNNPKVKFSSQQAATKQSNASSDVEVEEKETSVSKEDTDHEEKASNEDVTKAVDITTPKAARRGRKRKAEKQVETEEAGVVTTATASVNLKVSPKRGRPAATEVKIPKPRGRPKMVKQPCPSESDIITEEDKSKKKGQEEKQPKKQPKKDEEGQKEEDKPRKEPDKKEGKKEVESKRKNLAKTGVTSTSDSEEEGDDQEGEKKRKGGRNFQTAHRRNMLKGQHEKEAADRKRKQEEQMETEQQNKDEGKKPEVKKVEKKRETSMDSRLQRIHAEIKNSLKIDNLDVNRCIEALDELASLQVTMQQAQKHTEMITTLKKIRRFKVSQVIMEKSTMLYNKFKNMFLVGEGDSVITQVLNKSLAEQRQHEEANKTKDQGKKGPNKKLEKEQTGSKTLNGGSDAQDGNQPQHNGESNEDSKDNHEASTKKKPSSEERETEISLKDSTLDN
LEDGF/p75 93-226, sequence (O75475 93-226): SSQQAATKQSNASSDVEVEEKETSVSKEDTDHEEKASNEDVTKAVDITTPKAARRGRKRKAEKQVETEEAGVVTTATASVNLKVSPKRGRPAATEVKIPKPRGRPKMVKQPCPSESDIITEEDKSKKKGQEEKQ
MutL3, sequence (O75475 whole entry R180A/G181A/R182A/R194A/G195A/R196A): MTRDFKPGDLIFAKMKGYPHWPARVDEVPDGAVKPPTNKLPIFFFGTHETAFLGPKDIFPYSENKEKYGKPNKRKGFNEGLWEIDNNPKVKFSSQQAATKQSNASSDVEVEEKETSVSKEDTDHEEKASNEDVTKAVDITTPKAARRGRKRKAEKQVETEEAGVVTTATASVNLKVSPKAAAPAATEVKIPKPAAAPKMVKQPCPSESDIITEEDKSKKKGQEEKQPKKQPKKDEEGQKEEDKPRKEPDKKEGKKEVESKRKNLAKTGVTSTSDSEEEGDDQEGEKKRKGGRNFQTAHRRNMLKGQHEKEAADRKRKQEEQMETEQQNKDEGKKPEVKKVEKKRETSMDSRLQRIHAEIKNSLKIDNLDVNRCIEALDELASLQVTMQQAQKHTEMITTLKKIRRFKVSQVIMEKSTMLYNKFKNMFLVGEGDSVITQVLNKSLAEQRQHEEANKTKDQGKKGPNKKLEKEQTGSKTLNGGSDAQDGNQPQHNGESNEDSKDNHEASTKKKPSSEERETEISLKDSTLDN
LEDGF/p75 1-116 (PWWP domain), sequence (O75475 1-116): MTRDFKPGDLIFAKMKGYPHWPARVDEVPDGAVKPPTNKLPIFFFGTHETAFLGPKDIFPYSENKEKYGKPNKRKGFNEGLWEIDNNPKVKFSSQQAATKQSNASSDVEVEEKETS
LEDGF/p75 347-530 (IBD fragment), sequence (O75475 347-530): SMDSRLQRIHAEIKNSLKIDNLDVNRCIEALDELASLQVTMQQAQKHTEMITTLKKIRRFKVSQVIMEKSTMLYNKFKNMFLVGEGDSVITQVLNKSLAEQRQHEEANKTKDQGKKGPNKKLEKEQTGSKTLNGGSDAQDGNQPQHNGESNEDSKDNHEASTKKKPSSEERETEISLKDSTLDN
MutL4, sequence (O75475 whole entry R180A/G181A/R182A): as the sequence (O75475 whole entry R180A/G181A/R182A/R194A/G195A/R196A) above, with A194R, A195G, A196R counted along it
MutL5, sequence (O75475 whole entry R194A/G195A/R196A): as the sequence (O75475 whole entry R180A/G181A/R182A/R194A/G195A/R196A) above, with A180R, A181G, A182R counted along it

B1: Mut2 SPR duplex (AE2043/AE2002) (dsDNA)
DNA 1: GATTTAACGAGATAATTTTACAGA
DNA 2: TCTGTAAAATTATCTCGTTAA
Turning to B1, the binding result in the data set with LEDGF/p75 wild type [1] is on record as “binds”.

B2: Mut1 EMSA duplex (AE1199/AE2000) (dsDNA)
DNA 1: TTAACTAAATAAATTTTAAAA
DNA 2: TTTTAAAATTTATTTAGTTAA
On to B2, for which the binding result is listed as “no binding” in data set [2], “no binding” in data set [3] and “binds” in the data set with LEDGF/p75 wild type [4].

B3: HSE SPR duplex (AE2019/AE1198) (dsDNA)
DNA 1: GATTTAACGAGAGAAGGTTCCAGA
DNA 2: TCTGGAACCTTCTCTCGTTAA
With B3, the binding result in the data set with LEDGF/p75 wild type [1] is “binds”.

B4: HSE EMSA duplex (AE1197/AE1198) (dsDNA)
DNA 1: TTAACGAGAGAAGGTTCCAGA
DNA 2: TCTGGAACCTTCTCTCGTTAA
Take B4: the binding result with LEDGF/p75 wild type [5] and with LEDGF/p75 93-226 was “binds” throughout.

B5: Mut1 SPR duplex (AE2042/AE2000) (dsDNA)
DNA 1: GATTTAACTAAATAAATTTTAAAA
DNA 2: TTTTAAAATTTATTTAGTTAA
Turning to B5, the binding signal with LEDGF/p75 wild type [6] is 100 % of WT stably bound; in the data set with MutL3, ~7 % of WT stably bound; in the data set with MutL5, ~13 % of WT stably bound; with MutL4, ~45 % of WT stably bound.

B6: Mut2 EMSA duplex (AE2001/AE2002) (dsDNA)
DNA 1: TTAACGAGATAATTTTACAGA
DNA 2: TCTGTAAAATTATCTCGTTAA
B6: the binding result with LEDGF/p75 wild type [5] and with LEDGF/p75 93-226 was “binds” each time.
